{"source": "paper PMC11564776", "about": "“Enzyme stabilisation due to incorporation of a fluorinated non-natural amino acid at the protein surface” (Scientific Reports, 2024)", "substrate": "O=CCO", "test": "HPLC of erythrulose formation, initial velocities, Michaelis-Menten fit", "type": "biochemical, Escherichia coli", "conditions": "50 mM HPA, 1.36 mM ThDP, 5.1 mM MgCl2, 33 mM Tris.HCl, pH 7.0, assay 21 °C, pre-incubated 15 min at 21 °C, standard error in parentheses", "excerpt": "HPLC of erythrulose formation, initial velocities, Michaelis-Menten fit on WT transketolase (WT TK)"}
{"protein": "WT transketolase (WT TK) (Escherichia coli K-12) (protein, full length, N-terminal His6 tag (plasmid pQR791), Ni-NTA purified, tag cleavage not mentioned; homodimer of 73-74 kDa monomers; WT expressed in E. coli XL10-Gold, variants in E. coli C321.dA.exp) MSSRKELANAIRALSMDAVQKAKSGHPGAPMGMADIAEVLWRDFLKHNPQNPSWADRDRFVLSNGHGSMLIYSLLHLTGYDLPMEELKNFRQLHSKTPGHPEVGYTAGVETTTGPLGQGIANAVGMAIAEKTLAAQFNRPGHDIVDHYTYAFMGDGCMMEGISHEVCSLAGTLKLGKLIAFYDDNGISIDGHVEGWFTDDTAMRFEAYGWHVIRDIDGHDAASIKRAVEEARAVTDKPSLLMCKTIIGFGSPNKAGTHDSHGAPLGDAEIALTREQLGWKYAPFEIPSEIYAQWDAKEAGQAKESAWNEKFAAYAKAYPQEAAEFTRRMKGEMPSDFDAKAKEFIAKLQANPAKIASRKASQNAIEAFGPLLPEFLGGSADLAPSNLTLWSGSKAINEDAAGNYIHYGVREFGMTAIANGISLHGGFLPYTSTFLMFVEYARNAVRMAALMKQRQVMVYTHDSIGLGEDGPTHQPVEQVASLRVTPNMSTWRPCDQVESAVAWKYGVERQDGPTALILSRQNLAQQERTEEQLANIARGGYVLKDCAGQPELIFIATGSEVELAVAAYEKLTAEGVKARVVSMPSTDAFDKQDAAYRESVLPKAVTARVAVEAGIADYWYKYVGLNGAIVGMTTFGESAPAELLFEEFGFTVDNVVAKAKELL", "values": [{"measurement": "Km", "value": "22 (3) mM"}, {"measurement": "Vmax", "value": 4600, "unit": "µM/min"}, {"measurement": "kcat", "value": 53.3, "unit": "s⁻¹"}, {"measurement": "kcat/Km", "value": 2500, "unit": "M⁻¹ s⁻¹"}]}
